# Experimental data from article PMC10184913.
# Substrate: O=C(O)/C=C/c1ccccc1
# Experiment: cells, lysate or membranes
# Conditions: 1 mM NADPH, 50 mM phosphate pH 7.6, 25°C, co-expressed LjCPR1
row,Protein,Km [µM]
1,GmC4H14 (Glycine max) (protein) MDLLLLEKTLIGLFLAAVVAIAVSTLRGRKFKLPPGPLPVPIFGNWLQVGDDLNHRNLTDLAKKFGDIFLLRMGQRNLVVVSSPELAKEVLHTQGVEFGSRTRNVVFDIFTGKGQDMVFTVYGEHWRKMRRIMTVPFFTNKVVQQYRHGWESEAAAVVEDVKNNPDAAVSGTVIRRRLQLMMYNNMYRIMFDRRFESEEDPIFQRLRALNGERSRLAQSFEYNYGDFIPILRPFLKGYLKICKEVKETRLKLFKDYFVDERKKLGSIKSSNNNELKCAIDHILDAQRKGEINEDNVLYIVENINVAAIETTLWSIEWGIAELVNHPEIQQKVRDEIDRVLEAGHQVTEPDIQKLPYLQAVVKETLRLRMAIPLLVPHMNLHDAKLGGYDIPAESKILVNAWWLANNPAHWKKPEEFRPERFLEEELHVEANGNDFRYLPFGVGRRSCPGIILALPILAITLGRLVQNFELLPPPGQSQIDTSEKGGQFSLHILKHSTIVAKPRSF,2.74 ± 0.18
2,GmC4H2 (Glycine max) (protein) MDLLLLEKTLIGLFLAAVVAIAVSTLRGRKFKLPPGPLPVPIFGNWLQVGDDLNHRNLTDLAKKFGDIFLLRMGQRNLVVVSSPELAKEVLHTQGVEFGSRTRNVVFDIFTGKGQDMVFTVYGEHWRKMRRIMTVPFFTNKVVQQYRHGWESEAAAVVEDVKKNPDAAVSGTVIRRRLQLMMYNNMYRIMFDRRFESEEDPIFQRLRALNGERSRLAQSFEYNYGDFIPILRPFLKGYLKICKEVKETRLKLFKDYFVDERKKLGSTKSTNNNNELKCAIDHILDAQRKGEINEDNVLYIVENINVAAIETTLWSIEWGIAELVNHPEIQQKLRDEIDRVLGAGHQVTEPDIQKLPYLQAVVKETLRLRMAIPLLVPHMNLHDAKLGGYDIPAESKILVNAWWLANNPAHWKKPEEFRPERFFEEESLVEANGNDFRYLPFGVGRRSCPGIILALPILGITLGRLVQNFELLPPPGQSQIDTSEKGGQFSLHILKHSTIVAKPRSF,6.438 ± 0.74
3,GmC4H20 (Glycine max) (protein) MGLQIKEPLLFTLVTISLISITKLLHSYFSIPFSPSNLSIAIATLIFVLISYKFSSSSIKHSSTTLPPGPLSVPIFGNWLQVGNDLNHRLLASMSQTYGPVFLLKLGSKNLVVVSDPELATQVLHAQGVEFGSRPRNVVFDIFTGNGQDMVFTVYGDHWRKMRRIMTLPFFTNKVVHNYSNMWEEEMDLVVRDLNVNERVRSEGIVIRRRLQLMLYNIMYRMMFDAKFESQEDPLFIQATRFNSERSRLAQSFEYNYGDFIPLLRPFLRGYLNKCKDLQSRRLAFFNTHYVEKRRQIMAANGEKHKISCAMDHIIDAQMKGEISEENVIYIVENINVAAIETTLWSIEWAVAELVNHPTVQSKIRDEISKVLKGEPVTESNLHELPYLQATVKETLRLHTPIPLLVPHMNLEEAKLGGHTVPKESKVVVNAWWLANNPSWWKNPEEFRPERFLEEECATDAVAGGKVDFRFVPFGVGRRSCPGIILALPILGLVIAKLVKSFQMSAPAGTKIDVSEKGGQFSLHIANHSTVLFHPIKTL,3.83 ± 0.44
